Experimental data taken from IntAct's records for PubMed 31515488.

B1: THAP domain-containing protein 8 (Homo sapiens), Q8NA92 (parent)
chain: MPKYCRAPNCSNTAGRLGADNRPVSFYKFPLKDGPRLQAWLQHMGCEHWVPSCHQHLCSEHFTPSCFQWRWGVRYLRPDAVPSIFSRGPPAKSQRRTRSTQKPVSPPPPLQKNTPLPQSPAIPVSGPVRLVVLGPTSGSPKTVATMLLTPLAPAPTPERSQPEVPAQQAQTGLGPVLGALQRRVRRLQRCQERHQAQLQALERLAQQLHGESLLARARRGLQRLTTAQTLGPEESQTFTIICGGPDIAMVLAQDPAPATVDAKPELLDTRIPSA
B2: Hematopoietic lineage cell-specific protein (Homo sapiens), P14317 (parent)
chain: MWKSVVGHDVSVSVETQGDDWDTDPDFVNDISEKEQRWGAKTIEGSGRTEHINIHQLRNKVSEEHDVLRKKEMESGPKASHGYGGRFGVERDRMDKSAVGHEYVAEVEKHSSQTDAAKGFGGKYGVERDRADKSAVGFDYKGEVEKHTSQKDYSRGFGGRYGVEKDKWDKAALGYDYKGETEKHESQRDYAKGFGGQYGIQKDRVDKSAVGFNEMEAPTTAYKKTTPIEAASSGTRGLKAKFESMAEEKRKREEEEKAQQVARRQQERKAVTKRSPEAPQPVIAMEEPAVPAPLPKKISSEAWPPVGTPPSSESEPVRTSREHPVPLLPIRQTLPEDNEEPPALPPRTLEGLQVEEEPVYEAEPEPEPEPEPEPENDYEDVEEMDRHEQEDEPEGDYEEVLEPEDSSFSSALAGSSGCPAGAGAGAVALGISAVAVYDYQGEGSDELSFDPDDVITDIEMVDEGWWRGRCHGHFGLFPANYVKLLE
partner: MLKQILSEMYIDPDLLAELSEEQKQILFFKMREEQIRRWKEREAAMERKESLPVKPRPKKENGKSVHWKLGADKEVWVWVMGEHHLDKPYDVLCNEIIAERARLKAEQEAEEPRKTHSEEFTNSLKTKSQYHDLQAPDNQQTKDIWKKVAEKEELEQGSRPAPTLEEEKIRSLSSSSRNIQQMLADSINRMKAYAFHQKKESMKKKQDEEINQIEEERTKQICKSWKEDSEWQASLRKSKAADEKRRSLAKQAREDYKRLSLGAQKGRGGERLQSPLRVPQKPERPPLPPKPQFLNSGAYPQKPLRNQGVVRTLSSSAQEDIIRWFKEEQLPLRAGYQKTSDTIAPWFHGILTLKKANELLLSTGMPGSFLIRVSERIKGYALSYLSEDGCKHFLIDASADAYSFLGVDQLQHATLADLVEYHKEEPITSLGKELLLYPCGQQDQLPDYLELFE
B3: Tuftelin-interacting protein 11 (Homo sapiens), Q9UBB9 (parent)
chain: MSLSHLYRDGEGRIDDDDDERENFEITDWDLQNEFNPNRQRHWQTKEEATYGVWAERDSDDERPSFGGKRARDYSAPVNFISAGLKKGAAEEAELEDSDDEEKPVKQDDFPKDFGPRKLKTGGNFKPSQKGFAGGTKSFMDFGSWERHTKGIGQKLLQKMGYVPGRGLGKNAQGIINPIEAKQRKGKGAVGAYGSERTTQSMQDFPVVDSEEEAEEEFQKELSQWRKDPSGSKKKPKYSYKTVEELKAKGRISKKLTAPQKELSQVKVIDMTGREQKVYYSYSQISHKHNVPDDGLPLQSQQLPQSGKEAKAPGFALPELEHNLQLLIDLTEQEIIQNDRQLQYERDMVVNLFHELEKMTEVLDHEERVISNLSKVLEMVEECERRMQPDCSNPLTLDECARIFETLQDKYYEEYRMSDRVDLAVAIVYPLMKEYFKEWDPLKDCTYGTEIISKWKSLLENDQLLSHGGQDLSADAFHRLIWEVWMPFVRNIVTQWQPRNCDPMVDFLDSWVHIIPVWILDNILDQLIFPKLQKEVENWNPLTDTVPIHSWIHPWLPLMQARLEPLYSPIRSKLSSALQKWHPSDSSAKLILQPWKDVFTPGSWEAFMVKNIVPKLGMCLGELVINPHQQHMDAFYWVIDWEGMISVSSLVGLLEKHFFPKWLQVLCSWLSNSPNYEEITKWYLGWKSMFSDQVLAHPSVKDKFNEALDIMNRAVSSNVGAYMQPGARENIAYLTHTERRKDFQYEAMQERREAENMAQRGIGVAASSVPMNFKDLIETKAEEHNIVFMPVIGKRHEGKQLYTFGRIVIYIDRGVVFVQGEKTWVPTSLQSLIDMAK
partner: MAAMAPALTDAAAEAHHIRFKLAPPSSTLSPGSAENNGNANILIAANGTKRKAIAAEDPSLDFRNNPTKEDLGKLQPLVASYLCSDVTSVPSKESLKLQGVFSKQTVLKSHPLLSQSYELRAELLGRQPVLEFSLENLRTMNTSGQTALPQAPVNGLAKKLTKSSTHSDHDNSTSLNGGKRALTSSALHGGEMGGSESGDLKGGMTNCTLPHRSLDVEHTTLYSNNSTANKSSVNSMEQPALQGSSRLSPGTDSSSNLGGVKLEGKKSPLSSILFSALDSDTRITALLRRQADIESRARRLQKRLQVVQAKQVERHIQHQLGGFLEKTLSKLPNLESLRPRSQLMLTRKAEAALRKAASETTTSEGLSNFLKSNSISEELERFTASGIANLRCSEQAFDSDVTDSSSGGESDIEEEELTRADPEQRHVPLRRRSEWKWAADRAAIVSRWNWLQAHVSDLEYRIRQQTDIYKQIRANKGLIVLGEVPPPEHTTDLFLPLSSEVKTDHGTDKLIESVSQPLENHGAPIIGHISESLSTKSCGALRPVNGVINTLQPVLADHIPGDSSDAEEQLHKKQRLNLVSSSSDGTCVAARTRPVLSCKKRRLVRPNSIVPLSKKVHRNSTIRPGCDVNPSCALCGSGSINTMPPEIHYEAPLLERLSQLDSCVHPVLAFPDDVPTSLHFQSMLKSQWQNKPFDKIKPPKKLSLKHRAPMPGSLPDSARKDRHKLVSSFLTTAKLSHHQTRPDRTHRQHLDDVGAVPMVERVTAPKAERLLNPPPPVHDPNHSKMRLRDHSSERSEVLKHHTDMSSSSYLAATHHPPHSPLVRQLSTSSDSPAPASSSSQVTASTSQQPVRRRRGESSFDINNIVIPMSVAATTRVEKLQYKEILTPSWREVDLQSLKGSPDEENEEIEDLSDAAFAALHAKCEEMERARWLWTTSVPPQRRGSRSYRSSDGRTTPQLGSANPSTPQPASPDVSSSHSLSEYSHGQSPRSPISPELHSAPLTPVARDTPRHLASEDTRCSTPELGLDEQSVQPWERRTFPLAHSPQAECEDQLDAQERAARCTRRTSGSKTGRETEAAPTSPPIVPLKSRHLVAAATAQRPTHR

Variants of: B1
Details: with tfp11_human TFIP11, Q9UBB9

Q: With R189W as the variant, how does the “effect of a mutation on the interaction” value read?
A: with no effect

Q: For R185Q, which “effect of a mutation on the interaction” value is on record?
A: with no effect

Q: How did the “effect of a mutation on the interaction” value turn out when P157S was run?
A: with no effect

Variants of: B2
Details: with sh24a_human SH2D4A

Q: How did the “effect of a mutation on the interaction” value turn out when E361K was run?
A: with no effect

Q: Which “effect of a mutation on the interaction” value does the source give for P218L here?
A: with no effect

Q: For W21C, which “effect of a mutation on the interaction” value is on record?
A: with no effect

Variants of: B3
Details: with kanl1_human KANSL1, Q7Z3B3

Q: How did the “effect of a mutation on the interaction” value turn out when S688L was run?
A: with no effect
